Holding throughout (settings): both partners purified
For experiment [1], the target named is Recombinant human vascular endothelial growth factor (VEGF165) (human, UniProt P15692-4 1-191, X (detection label) on the N-terminus; disulfide bridge between the two cysteines cyclises …; C-terminal Tz4 (1,4-triazole formed of Az4 and D-propargylglycine) joins it to lfrew | all D-res). In words: not stated; titration giving EC50 ('relative affinities') of PCCs on VEGF, Figure 2A; experimental details in the Supporting Information.

Experiment [2] has as its target T1, Recombinant human vascular endothelial growth factor (VEGF165) (human, UniProt P15692-4 1-191, X (detection label) on the N-terminus); disulfide bridge between the two cysteines cyclises …; C-terminal Tz4 (1,4-triazole linker) joins it to lfrew | all D-residues (printed in lowercase: l). The description is as above.
In experiment [3] the target is T1, Recombinant human vascular endothelial …. In words: inhibition assay; inhibition of VEGF binding to VEGFR2 in the presence of PCCs, Figure 2B; experimental details in the Supporting Information.

Non-standard residues stand in square brackets, D forms with d. No end group written: not given here. code X = not defined here

T1 sequence (P15692 other isoform, or with tags, fused parts or gaps): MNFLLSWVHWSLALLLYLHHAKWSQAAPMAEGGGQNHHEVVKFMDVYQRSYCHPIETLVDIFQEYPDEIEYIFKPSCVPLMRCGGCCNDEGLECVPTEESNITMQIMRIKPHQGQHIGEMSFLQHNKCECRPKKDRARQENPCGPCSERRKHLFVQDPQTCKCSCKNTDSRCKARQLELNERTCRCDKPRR
Chain of Recombinant human vascular endothelial growth factor (VEGF165) (human, UniProt P15692-4 1-191, X (detection label) on the N-terminus; disulfide bridge between the two cysteines cyclises …; C-terminal Tz4 (1,4-triazole formed of Az4 and D-propargylglycine) joins it to lfrew | all D-res) (P15692 other isoform, or with tags, fused parts or gaps): as above

B1: Bi-LV (X-VEPNCDIHVMWEWECFERL-Tz4-lfrew) (designed binder)
peptide 1: {code X}-VEPNCDIHVMWEWECFERL
peptide 2: [dL][dF][dR][dE][dW]
modifications: not fully specified; printed as X-VEPNCDIHVMWEWECFERL-Tz4-lfrew; cysteine pairing not given here; reading uncertain; also: chain 1 C-terminus joined to chain 2 N-terminus via Tz4
notes: also called anti-VEGF biligand PCC
In the case of B1, the “fold improvement in EC50 relative to AnchorV” value in experiment [1] turned out to be 4.5 fold.

B2: Tetra-LV (X-VEPNCDIHVMWEWECFERL-Tz4-lfrew-Tz4-eeird-Tz4-qfkyr) (designed binder)
peptide 1: {code X}-VEPNCDIHVMWEWECFERL
peptide 2: [dL][dF][dR][dE][dW]
peptide 3: [dE][dE][dI][dR][dD]
peptide 4: [dQ][dF][dK][dY][dR]
modifications: cysteine pairing not given here; reading uncertain; also: chains joined via Tz4 linkers, N-terminal X not defined, triazole to a chain's N/C-terminus, triazole to a chain's N/C-terminus, triazole to a chain's N/C-terminus, printed as X-VEPNCDIHVMWEWECFERL-Tz4-lfrew-Tz4-eeird-Tz4-qfkyr
notes: also called tetraligand
The term EC50 denotes the midpoint of the concentration-response curve. The term IC50 denotes the concentration that gives 50% inhibition. On to B2, for which, in experiment [2], the concentration giving a half-maximal response (EC50) was found to be 6.1 ± 0.2 nM. Moreover, in experiment [3], the IC50 turned out to be 0.74 ± 0.05 nM.

B3: Tri-LV (X-VEPNCDIHVMWEWECFERL-Tz4-lfrew-Tz4-eeird) (designed binder)
peptide 1: {code X}-VEPNCDIHVMWEWECFERL
peptide 2: [dL][dF][dR][dE][dW]
peptide 3: [dE][dE][dI][dR][dD]
modifications: cysteine pairing not given here; reading uncertain; also: chains joined via Tz4 linkers, N-terminal X not defined, triazole to a chain's N/C-terminus, triazole to a chain's N/C-terminus, printed as X-VEPNCDIHVMWEWECFERL-Tz4-lfrew-Tz4-eeird
notes: also called consensus triligand; 64Cu-DOTA-Tri-LV (N-terminal DOTA conjugate, in vivo)
For B3, in experiment [3], the half-maximal inhibitory concentration (IC50) turned out to be 2.6 ± 0.5 nM.

These data come from paper PMC6585716 (Biopolymers, 2017).
